In paper PMC5089669, “Biocatalytic Properties and Structural Analysis of Eugenol Oxidase from Rhodococcus jostii RHA1: A Versatile Oxidative Biocatalyst” (Chembiochem, 2016):

Substrate: C=CCc1cc(OC)c(O)c(OC)c1
Assay: purified protein
Assay type: biochemical, Rhodococcus jostii
Details: Tris-HCl 50 mM, pH 7.5, 25 °C, O2 as co-substrate

B1: Eugenol oxidase (EUGO) (Rhodococcus jostii RHA1) (protein)
chain: MTRTLPPGVSDERFDAALQRFRDVVGDKWVLSTADELEAFRDPYPVGAAEANLPSAVVSPESTEQVQDIVRIANEYGIPLSPVSTGKNNGYGGAAPRLSGSVIVKTGERMNRILEVNEKYGYALLEPGVTYFDLYEYLQSHDSGLMLDCPDLGWGSVVGNTLDRGVGYTPYGDHFMWQTGLEVVLPQGEVMRTGMGALPGSDAWQLFPYGFGPFPDGMFTQSNLGIVTKMGIALMQRPPASQSFLITFDKEEDLEQIVDIMLPLRINMAPLQNVPVLRNIFMDAAAVSKRTEWFDGDGPMPAEAIERMKKDLDLGFWNFYGTLYGPPPLIEMYYGMIKEAFGKIPGARFFTHEERDDRGGHVLQDRHKINNGIPSLDELQLLDWVPNGGHIGFSPVSAPDGREAMKQFEMVRNRANEYNKDYAAQFIIGLREMHHVCLFIYDTAIPEAREEILQMTKVLVREAAEAGYGEYRTHNALMDDVMATFNWGDGALLKFHEKIKDALDPNGIIAPGKSGIWSQRFRGQNL
notes: homodimer
**Q.** What does the source list for B1?
**A.** Km: 0.8 µM; kcat: 0.49 s⁻¹
